According to PMC12520357 (2025):

B1: Reg1-FLAG (wild type) [S. cerevisiae] / Snf1-GFP [S. cerevisiae] (parent complex)
chain 1: MSTNLANYFAGKKDIENEHVNRNASHESNSKSDVKISGNDNDNDEDMGPSVSMAVQAKNDDDFHKSTFNLKRTRSMGLLDEYIDPTKKLLGRSDDLYDNDNEYYDNSSNNSSSNSSDDDYDDGYQEHSTSVSPPPADNDSYLIPQDDNDVVVEPERHVDYLSHEWKESEISNSWKYIILKKKKRDVDLVNAARLENASWRTWAKARNNLKTVSPEVVNWSKDSDVTWLYGPIVRDSEGNAQSEEEHDLERGYGSDDENSKRISMPTKNSKSIAAAPKPILKKRTVTEIIEDNALWKLNEARKHMTEMKHASVIMDPNGNKNVHDDFDALAAQVNAQYYHYPKESNSSVSLKSQHSDKKDNSTIPNPVGENSNGGGDKGEEDLHLKSALHVQNNRSTAQSNKSILENSTNDRKANLDQNLNSPDNNRFPSSTSSSNRDNENNSMGLSSILTSNPSEKSNKPTKNRHIHFNDRVEQCMALRYPASQSEDDESDDENKQYVDVNNNANVTTINNNRTPLLAIQHKSIPINSATEHLNKNTSDDDTSSQSSSSSHSDDEEHGGLYINARFSRRSDSGVHSPITDNSSVASSTTSRAHVRPIIKLLPDTTLNYGSDEESDNGEFNGYGNAVSHNVNTSRGYDYIYDYNSVYTGDTSSFLPVDSCDIVDVPEGMDLQTAIADDNASNYEFNNAVESKEKHVPQLHKASANNTTRQHGSHMLLYDDDNYSSSSDSEQQFIEDSQYNSSDDEEEEDDDDQEVDDNHDEGLSLRRTLSLGKSGSTNSLYDLAQPSLSSATPQQKNPTNFTGGKTDVDKDAQLAVRPYPLKRNSSSGNFIFNSDSEEESSSEEEQRPLPANSQLVNRSVLKGSVTPANISSQKKKALPKQPKASDSSQSFRIVNNTPSPAEVGASDVAIEGYFSPRNESIKSVVSGGNMMDHQDHSEMDTLAKGFENCHINNASKLKDKKVDSVQTTRKEASLTDSSNESLHKVVQNARGMASKYLHSWKKSDVKPQENGNDSS
chain 2: MSSNNNTNTAPANANSSHHHHHHHHHHHHHGHGGSNSTLNNPKSSLADGAHIGNYQIVKTLGEGSFGKVKLAYHTTTGQKVALKIINKKVLAKSDMQGRIEREISYLRLLRHPHIIKLYDVIKSKDEIIMVIEYAGNELFDYIVQRDKMSEQEARRFFQQIISAVEYCHRHKIVHRDLKPENLLLDEHLNVKIADFGLSNIMTDGNFLKTSCGSPNYAAPEVISGKLYAGPEVDVWSCGVILYVMLCRRLPFDDESIPVLFKNISNGVYTLPKFLSPGAAGLIKRMLIVNPLNRISIHEIMQDDWFKVDLPEYLLPPDLKPHPEEENENNDSKKDGSSPDNDEIDDNLVNILSSTMGYEKDEIYESLESSEDTPAFNEIRDAYMLIKENKSLIKDMKANKSVSDELDTFLSQSPPTFQQQSKSHQKSQVDHETAKQHARRMASAITQQRTYHQSPFMDQYKEEDSTVSILPTSLPQIHRANMLAQGSPAASKISPLVTKKSKTRWHFGIRSRSYPLDVMGEIYIALKNLGAEWAKPSEEDLWTIKLRWKYDIGNKTNTNEKIPDLMKMVIQLFQIETNNYLVDFKFDGWESSYGDDTTVSNISEDEMSTFSAYPFLHLTTKLIMELAVNSQSN
B2: Reg1-FLAG (wild type) [S. cerevisiae] / Glc7-GFP [S. cerevisiae] (parent complex)
chain 1: B1 chain 1
chain 2: MDSQPVDVDNIIDRLLEVRGSKPGQQVDLEENEIRYLCSKARSIFIKQPILLELEAPIKICGDIHGQYYDLLRLFEYGGFPPESNYLFLGDYVDRGKQSLETICLLLAYKIKYPENFFILRGNHECASINRIYGFYDECKRRYNIKLWKTFTDCFNCLPIAAIIDEKIFCMHGGLSPDLNSMEQIRRVMRPTDIPDVGLLCDLLWSDPDKDIVGWSENDRGVSFTFGPDVVNRFLQKQDMELICRAHQVVEDGYEFFSKRQLVTLFSAPNYCGEFDNAGAMMSVDESLLCSFQILKPAQKSLPRQAGGRKKK

Variants of: B1
Assay: co-immunoprecipitation (anti-FLAG IP, immunoblot quantification); n = 3; reg1Δ Snf1-GFP Glc7-GFP cells; parent: 1; read off a plot

| Variant | ratio to parent |
| --- | --- |
| chain 1 P231S | ~1.1 |
| chain 1 N624S | ~0.74 |
| chain 1 A54T | ~0.84 |

Next, values leading:

| ratio to parent | Variant |
| --- | --- |
| ~0.95 | chain 1 P278Q |
| ~0.8 | chain 1 W165G |

Variants of: B2
Assay: as above

| Variant | ratio to parent |
| --- | --- |
| chain 1 N624S | ~1.5 |
| chain 1 P231S | ~0.81 |
| chain 1 A54T | ~0.93 |

Other lines, results leading:

| ratio to parent | Variant |
| --- | --- |
| ~0.66 | chain 1 W165G |
| ~0.8 | chain 1 P278Q |
